From patent publication US20130078247A1 (Boehringer Ingelheim, published 2013)
“And” between values parts separate entries of the source, which are not always exact repeats. Equal entries are not always repeated. Each block holds one binder with its values, some of them ahead of it.

Assays:
recombinant mouse DLL4 = biological target: T1, recombinant mouse DLL4 (mouse, UniProt Q9JI71 27-532); assay: binding ELISA, coated mDLL4
T1 construct: extracellular domain; also called rmDLL4; mDLL4; not shown: C-terminal His tag
T1 sequence (Q9JI71 27-532): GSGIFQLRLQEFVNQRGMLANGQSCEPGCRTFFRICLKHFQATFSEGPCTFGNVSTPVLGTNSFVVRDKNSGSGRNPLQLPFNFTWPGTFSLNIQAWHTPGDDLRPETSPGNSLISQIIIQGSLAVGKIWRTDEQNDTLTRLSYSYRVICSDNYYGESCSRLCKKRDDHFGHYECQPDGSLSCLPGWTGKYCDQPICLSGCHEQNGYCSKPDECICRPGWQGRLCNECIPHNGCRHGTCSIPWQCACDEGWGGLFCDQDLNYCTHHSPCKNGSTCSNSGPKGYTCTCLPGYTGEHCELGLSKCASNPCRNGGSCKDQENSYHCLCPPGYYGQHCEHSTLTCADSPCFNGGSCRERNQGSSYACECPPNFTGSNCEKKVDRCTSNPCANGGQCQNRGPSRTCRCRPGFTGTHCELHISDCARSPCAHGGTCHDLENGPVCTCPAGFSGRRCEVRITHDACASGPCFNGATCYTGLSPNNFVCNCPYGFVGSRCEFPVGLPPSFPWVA
Experimental: (§1) In order to determine cross-reactivity to mouse DLL4 and rat DLL4, a binding ELISA is performed. […] Wells are blocked with a 1% casein solution. VHHs are applied as dilution series and binding is detected biotinylated anti-VHH 1A4 followed by extravidin-HRP. 1A4 is an anti-VHH VHH (generated in-house by Ablynx NV). As reference binding to human DLL4 is measured.

[1] = biological target: T2, cynomolgus DLL4 overexpressed on CHO cells (cynomolgus, UniProt Q9NR61 27-685 (human entry)); assay: FACS, CHO-cDLL4 cells
T2 construct: also called CHO-cDLL4; cDLL4
T2 chain: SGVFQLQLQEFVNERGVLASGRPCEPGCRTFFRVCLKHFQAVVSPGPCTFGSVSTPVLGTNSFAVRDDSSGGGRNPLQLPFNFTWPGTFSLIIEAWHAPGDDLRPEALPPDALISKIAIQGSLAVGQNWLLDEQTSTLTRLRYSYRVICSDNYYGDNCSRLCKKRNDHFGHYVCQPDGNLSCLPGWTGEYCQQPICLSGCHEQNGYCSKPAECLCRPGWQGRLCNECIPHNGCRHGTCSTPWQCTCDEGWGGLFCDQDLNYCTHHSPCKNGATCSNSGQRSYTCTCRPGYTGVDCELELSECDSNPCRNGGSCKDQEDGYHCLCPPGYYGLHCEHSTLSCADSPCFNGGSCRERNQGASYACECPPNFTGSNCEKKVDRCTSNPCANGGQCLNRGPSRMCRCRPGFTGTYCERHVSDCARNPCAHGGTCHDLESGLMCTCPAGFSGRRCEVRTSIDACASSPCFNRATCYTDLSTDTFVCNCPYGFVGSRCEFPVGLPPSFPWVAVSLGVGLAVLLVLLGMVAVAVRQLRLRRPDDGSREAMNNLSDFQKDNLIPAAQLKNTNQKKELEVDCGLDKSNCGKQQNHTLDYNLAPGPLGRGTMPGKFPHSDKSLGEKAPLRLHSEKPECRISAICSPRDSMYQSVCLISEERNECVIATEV
Experimental: Additionally, in order to determine cross-reactivity of the bispecific VHHs to murine and cynomolgus DLL4, a FACS binding experiment is performed. Briefly, CHO cells overexpressing mouse and cynomolgus DLL4 are used for a titration binding experiment of the VHHs. After a 30 min incubation on ice, all samples are washed and a 2-step detection using anti-c-myc followed by goat-anti mouse IgG-PE labeled is performed. CHO cells overexpressing human DLL4 are taken as reference. The mean MCF value is determined using a FACS Array and used for calculation of the EC₅₀ value (Table 24; FIG. 19).

rat DLL4 = biological target: T3, rat DLL4 (rat, UniProt D3ZHH1 28-530, limits assumed); assay: binding ELISA, coated rat DLL4
T3 construct: also called rDLLA; rDLL4
T3 sequence (D3ZHH1 28-530 limits assumed): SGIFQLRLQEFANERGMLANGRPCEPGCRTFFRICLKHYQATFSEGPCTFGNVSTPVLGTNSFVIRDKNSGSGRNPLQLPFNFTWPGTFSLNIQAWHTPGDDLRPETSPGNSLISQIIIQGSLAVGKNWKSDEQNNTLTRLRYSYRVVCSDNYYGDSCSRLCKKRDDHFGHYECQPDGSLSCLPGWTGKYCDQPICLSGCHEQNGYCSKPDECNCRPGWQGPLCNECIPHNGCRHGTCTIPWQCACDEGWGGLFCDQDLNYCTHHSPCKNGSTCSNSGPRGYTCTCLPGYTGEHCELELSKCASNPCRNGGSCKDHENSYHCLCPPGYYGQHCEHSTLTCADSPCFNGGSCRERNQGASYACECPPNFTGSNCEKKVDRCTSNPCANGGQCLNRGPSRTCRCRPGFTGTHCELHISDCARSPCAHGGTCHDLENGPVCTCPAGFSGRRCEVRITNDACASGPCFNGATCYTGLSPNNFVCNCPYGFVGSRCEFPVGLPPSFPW
Experimental: as §1

mouse Ang2 = biological target: T4, mouse Ang2 (mouse, UniProt O35608 19-496, limits assumed); assay: competition ELISA: mAng2 binding to mTie2
T4 construct: also called mAng2
T4 sequence (looked up): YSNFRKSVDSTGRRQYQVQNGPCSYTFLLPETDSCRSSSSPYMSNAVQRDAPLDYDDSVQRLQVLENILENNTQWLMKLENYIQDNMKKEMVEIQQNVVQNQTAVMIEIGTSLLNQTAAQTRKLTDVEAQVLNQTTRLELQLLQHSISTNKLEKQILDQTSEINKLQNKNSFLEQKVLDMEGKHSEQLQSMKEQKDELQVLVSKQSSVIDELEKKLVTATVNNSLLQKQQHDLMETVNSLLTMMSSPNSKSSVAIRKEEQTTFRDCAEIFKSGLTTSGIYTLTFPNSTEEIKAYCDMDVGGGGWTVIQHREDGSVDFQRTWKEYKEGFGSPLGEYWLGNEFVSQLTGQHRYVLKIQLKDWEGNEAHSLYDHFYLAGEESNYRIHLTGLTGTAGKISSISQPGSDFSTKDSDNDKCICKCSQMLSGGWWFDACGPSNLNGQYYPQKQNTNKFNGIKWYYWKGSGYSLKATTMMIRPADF

cynomolgus Ang2 = biological target: T5, cynomolgus Ang2 (cynomolgus); assay: competition ELISA: cAng2 binding to cTie2
T5 construct: also called cAng2; cyno Ang2

human Ang2 = biological target: T6, human Ang2 (human, UniProt O15123 19-496, limits assumed); assay: competition ELISA: hAng2 binding to hTie2
T6 construct: also called hAng2; human Angiopoietin2
T6 sequence (looked up): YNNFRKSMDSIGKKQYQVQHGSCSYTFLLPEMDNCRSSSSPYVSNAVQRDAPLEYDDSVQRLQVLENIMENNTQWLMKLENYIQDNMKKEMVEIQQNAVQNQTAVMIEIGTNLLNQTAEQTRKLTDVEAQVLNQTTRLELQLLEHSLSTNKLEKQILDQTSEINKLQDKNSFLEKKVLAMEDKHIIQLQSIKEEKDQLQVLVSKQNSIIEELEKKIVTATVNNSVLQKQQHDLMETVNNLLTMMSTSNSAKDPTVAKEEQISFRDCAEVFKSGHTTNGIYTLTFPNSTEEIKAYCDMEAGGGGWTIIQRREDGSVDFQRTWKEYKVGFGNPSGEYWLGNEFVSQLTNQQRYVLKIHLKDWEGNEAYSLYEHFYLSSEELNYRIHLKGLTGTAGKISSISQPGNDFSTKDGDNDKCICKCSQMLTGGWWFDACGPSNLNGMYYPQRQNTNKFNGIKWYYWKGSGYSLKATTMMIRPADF

recombinant human DLL4 [2] = biological target: T7, recombinant human DLL4 (human, UniProt Q9NR61 25-522); assay: cell-based or functional assay
recombinant human DLL4 [3] = biological target: T7, recombinant human DLL4; assay: SPR Biacore T100; rhDLL4 on chip; heterogeneous binding curve, no 1:1 fit
[4] = biological target: recombinant human DLL4 extracellular domain, C-terminally His-tagged (R&D Systems) (human, UniProt Q9NR61 25-522, biotinylated in the competition assays (sites not given)); assay: cell-based or functional assay
[5] = biological target: human DLL4, full length, overexpressed on CHO or HEK293 cells (human, UniProt Q9NR61 27-685); assay: cell-based or functional assay
[6] = biological target: T8, recombinant human Jagged-1 (Alexis) (human, UniProt P78504 34-1067, limits assumed); assay: binding ELISA on coated rhJagged-1
T8 construct: also called hJagged-1; hJAG1
Experimental: Absence of binding to homologous ligands human DLL1 and human Jagged-1 is assessed via solid phase binding assay (ELISA). In brief, human DLL1 (Alexis, San Diego, Calif., USA) and human Jagged-1 (Alexis, San Diego, Calif., USA) are coated overnight at 4° C. at 1 μg/mL in a 96-well MaxiSorp plate (Nunc, Wiesbaden, Germany). Wells are blocked with a casein solution (1% in PBS). VHHs are applied as dilution series and binding is detected using a mouse anti-myc (Roche) and an anti-mouse-AP conjugate (Sigma, St. Louis, Mo., USA).

- EC50 (recombinant mouse DLL4): 3.3 nM
- EC50 [1]: 0.8 nM
- EC50 (rat DLL4): 2.6 nM
B1: DLLBII00018 (VHH)
VHH: DVQLVESGGGLVQPGGSLRLSCAASGRTFSSYAMAWYRQAPGKEREYVAAIRWSGGTAYYADSVKGRFTISRDNAKNTVYLQMNSLRPEDTAVYYCANRAPDTRLAPYEYDHWGQGTLVTVSS

- IC50 (read off the curve) (mouse Ang2): ~2 nM
- IC50 (read off the curve) (cynomolgus Ang2): ~2 nM
- IC50 (read off the curve) (human Ang2): ~1 nM
B2: 00956 (VHH)
VHH: EVQLVESGGGLVQPGGSLRLSCAASGFTLDDYAIGWFRQAPGKEREGVSAIRSSGGSTYYADSVKGRFTISSDNSKNTVYLQMNSLRPEDTAVYYCAAVPAGRLRFGEQWYPLYEYDAWGQGTLVTVSS

- IC50 (nM) in the DLL4 proliferation assay (HUVEC, experiment 1) (recombinant human DLL4 [2]): 103 nM
- IC50 (nM) in the DLL4 proliferation assay (HUVEC, experiment 2) (recombinant human DLL4 [2]): 32 nM
- kon (recombinant human DLL4 [3]): 120000 M⁻¹ s⁻¹ and 150000 M⁻¹ s⁻¹
B3: DLLBII104G01 (VHH)
VHH: EVQLVESGGGLVQAGGSLRLSCAASGFTFDDYAIGWFRQAPGKEREGVSCISSSDGSTYYADSVKGRFTISSDNAKNTVYLQMNSLKPEDTAVYYCATAWCDSSWYRSFVGYWGQGTQVTVSS
notes: also called 104G1; not shown: C-terminal c-myc tag and His6 tag

- concentration giving complete inhibition, HUVEC proliferation assay [4]: 10 µM
- IC50, DLL4/Notch1 reporter assay (luciferase; co-culture with HEK293-hDII4) [5]: 540 nM
- binding result [6]: no binding (tested: 2.5e-7 M)
B4: DLLBII56A09 (VHH)
VHH: EVQLVESGGGLVQPGGSLRLSCAASGFTFDDYAIGWFRQAPGKEPEGISCISSSGGITYYADSVKGRFTTSRDNAKNTVYLQMNSLKPEDTAVYYCATPGIAACRGIHYTGQGTQVTVSS
notes: also called 56A9; DLLBII56A9; not shown: C-terminal c-myc and His6 tags
